The text below walks through data of patent publication US5847077, “Fungal multisubunit protein complex critical for expression of fungal proteins” (University of Massachusetts Medical Center, dated 1998).

For assay [1], the target named is T1, S. cerevisiae TATA-box Binding Protein (yTBP) (S. cerevisiae, UniProt P13393).
T1 sequence: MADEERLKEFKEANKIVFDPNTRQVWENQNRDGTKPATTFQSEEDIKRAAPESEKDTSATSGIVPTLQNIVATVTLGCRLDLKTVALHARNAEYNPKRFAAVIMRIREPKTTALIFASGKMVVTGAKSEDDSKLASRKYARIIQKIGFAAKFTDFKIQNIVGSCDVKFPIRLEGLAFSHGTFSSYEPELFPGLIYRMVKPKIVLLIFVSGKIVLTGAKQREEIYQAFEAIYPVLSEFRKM
In words: Far Western blot of the hydroxylapatite fraction probed with 35S-labelled yTBP. The procedure:
(§1) The hydroxylapatite fraction was separated by SDS-PAGE and transferred to Immobilon-P membranes, and blocked in buffer T (0.2M KOAc) containing 0.01% (v/v) NP-40 and 4% BSA for 3 hr at room temperature followed by 2 hr at […]. ^35S-labeled yTBP and hTBP and its mutant derivatives (Ha, I. et al. Genes & Dev. 7, 1021–1032 (1993)) were synthesized in rabbit reticulocyte lysate and wheat germ extract, respectively, and were diluted in incubation buffer (buffer T (0.2) plus 0.01% (v/v) NP-40 and 0.5% BSA). […] The membrane was incubated with probe at […] for 14–18 min, twice in incubation buffer without BSA for 15 min, and rinsed in buffer T (0.2) lacking glycerol for 20 sec. The membrane was air dried, and exposed directly to film for 8–24 hr.
(§2) To identify this subunit, the yTAF complex was examined for TBP binding using an immobilized protein blotting ("Far Western") assay. The hydroxylapatite fraction was fractionated by SDS-PAGE, the polypeptides transferred to nitrocellulose, and the membrane probed with ^35S-labeled yTBP.

The target of assay [2] is human TATA-box Binding Protein (hTBP) (human, UniProt P20226). Put plainly: Far Western blot of the hydroxylapatite fraction probed with 35S-labelled human TBP. The procedure: as §1, §2

B1: yeast TAF-90 (yTAF90), the 90 kD polypeptide of the yTAF complex (other)
chain: MSQKQSTNQNQNGTHQPQPVKNQRTNNAAGANSGQQPQQQSQGQSQQQGRSNGPFSASDLNRIVLEYLNKKGYHRTEAMLRAESGRTLTPQNKQSPANTKTGKFPEQSSIPPNPGKTAKPISNPTNLSSKRDAEGGIVSSGRLEGLNAPENYIRAYSMLKNWVDSSLEIYKPELSYIMYPIFIYLFLNLVAKNPVYARRFFDRFSPDFKDFHGSEINRLFSVNSIDHIKENEVASAFQSHKYRITMSKTTLNLLLYFLNENESIGGSLIISVINQHLDPNIVESVTAREKLADGIKVLSDSENGNGKQNLEMNSVPVKLGPFPKDEEFVKEIETELKIKDDQEKQLNQQTAGDNYSGANNRTLLQEYKAMNNEKFKDNTGDDDKDKIKDKIAKDEEKKESELKVDGEKKDSNLSSPARDILPLPPKTALDLKLEIQKVKESRDAIKLDNLQLALPSVCMYTFQNTNKDMSCLDFSDDCRIAAAGFQDSYIKIWSLDGSSLNNPNIALNNNDKDEDPTCKTLVGHSGTVYSTSFSPDNKYLLSGSEDKTVRLWSMDTHTALVSYKGHNHPVWDVSFSPLGHYFATASHDQTARLWSCDHIYPLRIFAGHLNDVDCVSFHPNGCYVFTGSSDKTCRMWDVSTGDSVRLFLGHTAPVISIAVCPDGRWLSTGSEDGIINVWDIGTGKRLKQMRGHGKNAIYSLSYSKEGNVLISGGADHTVRVWDLKKATTEPSAEPDEPFIGYLGDVTASINQDIKEYGRRRTVIPTSDLVASFYTKKTPVFKVKFSRSNLALAGGAFRP
In the case of B1, the binding result in assay [1] is reported as “no binding”.

B2: yeast TAF-145 (yTAF145), the 145 kD polypeptide of the yTAF complex (other)
chain: MVKQQGSGKTNLANEDEAYEAIFGGEFGSLEIGSYIGGDEGANSKDYTEHLPDAVDFEDEDELADDDDDLPEESDANLHPAMMTMGAYDDVNENGAVLGIDSNSLNMQLPEINGDLSQQFILEDDGGTPATSNALFMGMDANEIHLATETGVLDGSGANEIGHSQLSIGGVNGNDMSINGGFIMEPDMSDGKHKKATKLDLINHEKYLLKKYFPDFEKGKILKWNKLIYRRSVPYHWHSEISRVKKPFMPLNLKFKVQQDDKRLFNSRTISYVAPIYQGKNNLLQSNSSASRRGLIHVSIDELFPIKEQQKKRKIIHDEKTISEDLLIATDDWDQEKIINQGTSSTATLADSSMTPNLKFSGGYKLKSLIEDVAEDWQWDEDMIIDAKLKESKHAELNMNDEKLLLMIEKTNNLAQQKQQLDSSNLILPLNETILQQKFNLSNDDKYQILKKTHQTKVRSTISNLNIQHSQPAINLQSPFYKVAVPRYQLRHFHRENFGSHIRPGTKIVFSKLKARKRKRDKGKDVKESFSTSQDLTIGDTAPVYLMEYSEQTPVALSKRGMANKLINYYRKANEQDTLRPKLPVGETHVLGVQDKSPFWNFGFVEPGHIVPTLYNNMIRAPVFKHDISGTDFLLTKSSGFGISNRFYLRNINHLFTVGQTFPVEEIPGPNSRKVTSMKATRLKMIIYRILNHNHSKAISIDPIAKHFPDQDYGQNRQKVKEFMKYQRDGPEKGLWRLKDDEKLLDNEAVKSLITPEQISQVESMSQGLQFQEDNEAYNFDSKLKSLEENLLPWNITKNFINSTQMRAMIQIHGVGDPTGCGEGFSFLKTSMKGGFVKSGSPSSNNNSSNKKGTNTHSYNVAQQQKAYDEEIAKTWYTHTKSLSISNPFEEMTNPDEINQTNKHVKTDRDDKKILKIVRKKRDENGIIQRQTIFIRDPRVIQGYIKIKEQDKEDVNKLLEEDTSKINNLEELEKQKKLLQLELANLEKSQQRRAARQNSKRNGGATRTENSVDNGSDLAGVTDGKAARNKGKNTTRRCATCGQIGHIRTNKSCPMYSSKDNPASPK
On to B2, for which the binding result in assay [1] and in assay [2] was “binds” throughout.
